Here are results for three molecules from patent US20110086770A1.

The Kd is a measure of binding affinity in units of concentration. As usually defined, the koff is the first-order rate constant of dissociation. The kon is a measure of how fast the partners come together.

In assay [1] the target is recombinant human DR 5 receptor Fc fusion protein (R&D Systems) (human). The assay is described as follows: SPR (Biacore), captured DR5/Fc.
Assay [2] deals with T1, recombinant human DR 4 receptor Fc fusion protein (R&D Systems) (human).
T1 sequence (O00220 whole entry, looked up): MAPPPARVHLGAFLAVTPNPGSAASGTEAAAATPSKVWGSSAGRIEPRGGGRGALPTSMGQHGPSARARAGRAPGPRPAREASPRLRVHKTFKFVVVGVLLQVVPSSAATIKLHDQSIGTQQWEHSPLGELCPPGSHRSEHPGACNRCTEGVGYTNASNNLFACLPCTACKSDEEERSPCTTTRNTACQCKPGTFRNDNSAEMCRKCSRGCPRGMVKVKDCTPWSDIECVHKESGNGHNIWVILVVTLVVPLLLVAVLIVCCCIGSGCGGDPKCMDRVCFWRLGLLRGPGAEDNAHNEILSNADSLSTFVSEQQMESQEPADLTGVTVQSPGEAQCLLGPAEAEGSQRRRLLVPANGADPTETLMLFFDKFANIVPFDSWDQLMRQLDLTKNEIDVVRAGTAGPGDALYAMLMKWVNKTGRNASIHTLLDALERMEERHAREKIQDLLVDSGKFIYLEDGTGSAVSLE
In words: SPR (Biacore), captured DR4/Fc.

recombinant human DR 5 receptor Fc fusion protein (R&D Systems) (human), sequence (O14763 whole entry, the tested form may be a part): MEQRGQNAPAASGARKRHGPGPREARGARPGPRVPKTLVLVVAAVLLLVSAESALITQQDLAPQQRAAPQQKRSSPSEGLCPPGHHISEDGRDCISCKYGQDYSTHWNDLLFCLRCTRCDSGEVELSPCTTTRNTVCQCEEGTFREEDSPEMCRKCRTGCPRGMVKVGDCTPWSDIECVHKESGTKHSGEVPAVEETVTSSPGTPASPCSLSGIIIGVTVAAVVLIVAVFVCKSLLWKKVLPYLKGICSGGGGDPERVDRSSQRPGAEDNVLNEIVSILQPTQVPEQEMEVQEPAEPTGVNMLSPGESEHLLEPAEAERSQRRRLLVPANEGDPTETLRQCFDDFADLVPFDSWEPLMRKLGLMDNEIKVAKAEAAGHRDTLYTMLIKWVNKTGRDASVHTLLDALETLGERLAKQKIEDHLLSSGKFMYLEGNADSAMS

B1: 4a8c (=A3C) DR 5 ATRIMER (designed binder, from a related filing, part only)
chain: EPPTQKPKKIVNAKKDVVNTKMFEELKSRLDTLAQEVALLKEQQALQTVCLKGTKVHMKCFLAFTQTKTFHEASEDCISRGGTLSTPQTGSENDALYEYLRQSVGNEAEIWLGLNRATLRPRWVDMTGARIAYKNWETEITAQPDGGKNCAVLSGAANGKWFDKRCRDQLPYICQFGIV
Regarding B1, in assay [1], the Ka came to 1.74e+08 M⁻¹, the Kd was determined as 5.74 nM, the koff is 0.000362 s⁻¹ and the on-rate (kon) came out at 63000 M⁻¹ s⁻¹.

B2: 014-42.3D10 ATRIMER (designed binder, part only; not given: nothing essential, part only)
chain, part: EPPTQKPKKIVNAKKDVVNTKMFEELKSRLDTLAQEVALLKEQQALQTVCLKGTKVHMKCFLAFTQTKTFHEASEDCISRGGTLSTPQTGSENDALYEYLRQSVGNEAEIWLGLNVDMTGARIAYKNWETEITAQPCAVLSGAANGKWFDKRCRDQLPYICQFGIV
For the molecule B2, in assay [2], the Ka is 6.58e+06 M⁻¹, the Kd turned out to be 152 nM, the koff came to 0.00185 s⁻¹ and the kon is 12200 M⁻¹ s⁻¹.

B3: 014-42.3B8 ATRIMER (designed binder, part only; not given: nothing essential, part only)
chain, part: EPPTQKPKKIVNAKKDVVNTKMFEELKSRLDTLAQEVALLKEQQALQTVCLKGTKVHMKCFLAFTQTKTFHEASEDCISRGGTLSTPQTGSENDALYEYLRQSVGNEAEIWLGLNVDMTGARIAYKNWETEITAQPCAVLSGAANGKWFDKRCRDQLPYICQFGIV
B3: in assay [2], the Ka amounted to 1.11e+08 M⁻¹, the dissociation constant (Kd) was 9.01 nM, the dissociation rate constant (koff) came to 0.00101 s⁻¹ and the kon worked out at 112000 M⁻¹ s⁻¹.
